Assay results taken from article PMC12788653 (PLOS Pathogens, 2025).

Molecular target: the molecule itself
Test: SEC

B1: recombinant A/WSN/1933 (H1N1) NP, NΔ7NP with C-terminal His tag (WT) (natural protein)
chain: RSYEQMETDGERQNATEIRASVGKMIGGIGRFYIQMCTELKLSDYEGRLIQNSLTIERMVLSAFDERRNKYLEEHPSAGKDPKKTGGPIYRRVDGKWMRELILYDKEEIRRIWRQANNGDDATAGLTHMMIWHSNLNDATYQRTRALVRTGMDPRMCSLMQGSTLPRRSGAAGAAVKGVGTMVMELIRMIKRGINDRNFWRGENGRRTRIAYERMCNILKGKFQTAAQRAMVDQVRESRNPGNAEFEDLIFLARSALILRGSVAHKSCLPACVYGPAVASGYDFEREGYSLVGIDPFRLLQNSQVYSLIRPNENPAHKSQLVWMACHSAAFEDLRVSSFIRGTKVVPRGKLSTRGVQIASNENMETMESSTLELRSRYWAIRTRSGGNTNQQRASSGQISIQPTFSVQRNLPFDRPTIMAAFTGNTEGRTSDMRTEIIRLMESARPEDVSFQGRGVFELSDEKAASPIVPSFDMSNEGSYFFGDNAEEYDN
notes: also called WT NP; pET28a-NΔ7NP
Q: Does B1 bind?
A: binds
